How the values were obtained:
Assay in all cases: transesterification rate, HPLC, Michaelis-Menten fit
Format in all cases: biochemical, Talaromyces wortmannii
[1] = substrate: C=COC(=O)/C=C/c1ccc(O)c(OC)c1; conditions: acyl donor, co-substrate 200 mM prenol, detergentless microemulsion n-hexane: t-butanol: 100 mM MOPS-NaOH pH 6.0 (system II, 3.2% buffer), 40 °C, 8 h
Text: transesterification rate, HPLC, Michaelis-Menten fit on Fae125

[2] = substrate: C=COC(=O)/C=C/c1ccc(O)c(OC)c1; conditions: acyl donor, co-substrate 200 mM prenol, system II microemulsion, MOPS-NaOH pH 6.0, 40 °C, 8 h
Text: transesterification rate, HPLC, Michaelis-Menten fit on Fae7262

[3] = substrate: C=COC(=O)/C=C/c1ccc(O)c(OC)c1; conditions: acyl donor, co-substrate 200 mM prenol, system I microemulsion (5.0% buffer), MOPS-NaOH pH 6.0, 40 °C, 8 h
Text: transesterification rate, HPLC, Michaelis-Menten fit on Fae68

B1: Fae125 (Talaromyces wortmannii) (protein)
chain: QQSLWGQCGGTGWTGPTQCVSGACCQVQNPYYSQCIQGNCSPASSTSSTKTTATSVSTTTSARPSGTSLSSGCGKTLSLHSGTYTTTVSGQQRQYTLTLPQNYSPNKAYQLIFGYHWLSGTMQDVVSGSYYGIQPLAGDNAIFVAPQGLNNGWGNTNGDDITFTDQMLSTLENALCIDQTQIYSMGWSYGGAMSYALACARPNVFRAVAVMSGANLSGCSPGTQPVAYYAQHGVSDSVLPFSLGEGIRDTFVKDNHCTPTNPPAPAAGSGTHIKTEYSGCDSGHPVWWVAFDGPHEPLATDAGTSSSWTPGQIWSFFSLFH
notes: expressed in low-background C1 (Myceliophthora thermophila) strain; CBM1 predicted at residues 4-30; EC 3.1.1.73
Protein B1 has a Km [1] of 21.2 ± 7.4 mM.

B2: Fae7262 (Talaromyces wortmannii) (protein)
chain: ASLTQVNNFGDNPGSLQMYIYVPNTLASKPAVIVAMHPCGGSATEYYGMYDYHSPADQYGYILIYPSATRDYNCFDAYSSSSLTHNGGSDSLSIVNMVKYVISTYGADSSKVYMTGSSSGAIMTNVLAGAYPDVFAAGSAFSGMPYACLYGAGAADPIMSNQTCSQGQIQHTGQQWAAYVHNGYPGYTGRYPRLQMWHGTADNVISYADLGQEISQWTTVMGLSFTGNQTNTPLSGYTKMVYGDGSQFQAYSAAGVGHFVPTDVSVVLDWFGITSGTTTTTTSKTTSATTSTTSSAPSSTGGCTAAHWAQCGGIGYTGCTACVSPYTCQKSNDYYSQCL
notes: expressed in low-background C1 (Myceliophthora thermophila) strain; EC 3.1.1.73
B2 gave a Km [2] of 26.2 ± 2.9 mM.

B3: Fae68 (Talaromyces wortmannii) (protein)
chain: LPETHLQARGQSTSASSQSFQAKCEAFSSKINGQKKNAFQNDITLHSVTYIPSGGNISMATIPSVCANNAISTASPVEFCRVSLNVTTSSTSQIYMEAWLPGNYTGRFLSTGNGGLGGCIQYSDMLYATQFGFATVGTNNGHFGDTGKYFLGNTEILEDFAYRALHTGVVIGKELAKLFYTQISSGYNKSYYLGCSTGGRQGWKSLEKFPDDFDGVVAGSPAFNFINLSNWGARFLGITGDNTSDTFVTATQWGNLIHDEIIRQCDALDGAVDGIIEDPDLCHPVFETLICNSSSTASSSCLTGVQANTVNQVFTPLIGEDGKWLYPRMQPGSEVLAAYIYYSGQPFQYSTDWFRYVVYNNSAWDPTTWTLADAAAADRQDPFDISTWDSSLVSGFQKKGGKVLHYHGMEDPIITSDSSKAWYKYLADSTNTSPSELDEFYRFFAISGMGHCSPGSGASYIGQGVGTYVPGSEQHPEDNVLMAMVQWVEEGIAPEFVRGAKVASNGSVEYTRKHCKFPKRNVYVGPGNYTDENAWECV
notes: as for B2
B3 gave a Km [3] of 16.3 ± 3.7 mM.

Reference: paper PMC6197793, “Optimized Enzymatic Synthesis of Feruloyl Derivatives Catalyzed by Three Novel Feruloyl Esterases from Talaromyces wortmannii in Detergentless Microemulsions” (Computational and Structural Biotechnology Journal, 2018)
